Measurements from US20230242577A1 (UBIPROTEIN, published 2023).

B1: pCMV3-C-myc-prepro-GHRL WT (ligand)
chain: GSSFLSPEHQRVQQRKESKKPPAKLQPRALAGWLRPEDGGQAEGAEDEMEVRFNAPFDVGIKLSGVQYQQHSQALGKFLQDILWEEAKEAPADK
notes: also called Ghrelin/obestatin preprohormone; appetite stimulating hormone precursor; not shown: myc tag of the pCMV3-C-myc vector
B2: pcDNA3-myc-G-CSF WT (ligand)
chain: TPLGPASSLPQSFLLKCLEQVRKIQGDGAALQEKLVSECATYKLCHPEELVLLGHSLGIPWAPLSSCPSQALQLAGCLSQLHSGLFLYQGLLQALEGISPELGPTLDTLQLDVADFATTIWQQMEELGMAPALQPTQGAMPAFASAFQRRAGGVLVASHLQSFLEVSYRVLRHLAQP
notes: also called human G-CSF; not shown: myc tag of the pcDNA3-myc vector
B3: pcDNA3-myc-GLP-1 WT (ligand)
chain: HAEGTFTSDVSSYLEGQAAKEFIAWLVKGRG
notes: also called glucagon-like peptide-1; human GLP-1; not shown: myc tag of the pcDNA3-myc vector
B4: pcDNA3-myc-interferon-β WT (ligand)
chain: MSYNLLGFLQRSSNFQCQKLLWQLNGRLEYCLKDRMNFDIPEEIKQLQQFQKEDAALTIYEMLQNIFAIFRQDSSSTGWNETIVENLLANVYHQINHLKTVLEEKLEKEDFTRGKLMSSLHLKRYYGRILHYLKAKEYSHCAWTIVRVEILRNFYFINRLTGYLRN
notes: also called IFN-β; human interferon-β; not shown: myc tag of the pcDNA3-myc vector
B5: pCMV3-C-myc-VEGFA WT (ligand)
chain: APMAEGGGQNHHEVVKFMDVYQRSYCHPIETLVDIFQEYPDEIEYIFKPSCVPLMRCGGCCNDEGLECVPTEESNITMQIMRIKPHQGQHIGEMSFLQHNKCECRPKKDRARQEKKSVRGKGKGQKRKRKKSRPCGPCSERRKHLFVQDPQTCKCSCKNTDSRCKARQLELNERTCRCDKPRR
notes: also called vascular endothelial growth factor A; human VEGFA; not shown: myc tag of the pCMV3-C-myc vector
B6: pcDNA3-myc-β-trophin WT (ligand)
chain: APMGGPELAQHEELTLLFHGTLQLGQALNGVYRTTEGRLTKARNSLGLYGRTIELLGQEVSRGRDAAQELRASLLETQMEEDILQLQAEATAEVLGEVAQAQKVLRDSVQRLEVQLRSAWLGPAYREFEVLKAHADKQSHILWALTGHVQRQRREMVAQQHRLRQIQERLHTAALPA
notes: also called human β-trophin; not shown: myc tag of the pcDNA3-myc vector

target: T1, HA-ubiquitin (from pMT123-HA-ubiquitin) (UniProt P0CG47 1-76); assay: anti-myc IP, anti-HA blot, HEK 293T co-transfected with HA-ubiquitin (ubiquitination)
T1 construct: one ubiquitin unit is residues 1-76; not shown: HA tag of pMT123-HA-ubiquitin

Binding result, binds:
B1, B2, B3, B4, B5, B6
